Source: PMC7164962

Target: ADHA, alcohol dehydrogenase from Candida magnoliae DSMZ 70638, wild type (Candida magnoliae DSMZ 70638)
Assay: crystal structure; purified enzyme, sitting drop, 20% w/v PEG 3350, 0.2 M sodium citrate; with or without 1 mM NADP+; quaternary structure seen in the crystal

Substance “ADHA, alcohol dehydrogenase from Candida magnoliae DSMZ 70638, wild type (enzyme)” has a stoichiometry N of 4.
